Changes are numbered by the printed parent chain.
B1: bispecific antibody CS7 (bispecific antibody, human IgG1, kappa)
light: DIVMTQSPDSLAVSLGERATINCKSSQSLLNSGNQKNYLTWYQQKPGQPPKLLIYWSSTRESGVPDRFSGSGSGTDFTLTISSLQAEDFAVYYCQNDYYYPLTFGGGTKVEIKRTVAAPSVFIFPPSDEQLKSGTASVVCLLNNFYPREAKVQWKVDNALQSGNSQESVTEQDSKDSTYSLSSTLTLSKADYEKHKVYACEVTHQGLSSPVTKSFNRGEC
heavy 1: EVQLVESGGGLVKPGGSLRLSCAASGFSFSNSAMSWVRQAPGKGLEWVSTISSGDSYTYYADSVKGRFTISRDNAKNSLYLQMNSLRAEDTAVYYCARQGYGNALDYWGQGTLVTVSSASTKGPSVFPLAPSSKSTSGGTAALGCLVKDYFPEPVTVSWNSGALTSGVHTFPAVLQSSGLYSLSSVVTVPSSSLGTQTYICNVNHKPSNTKVDKKVEPKSCDKTHTCPPCPAPPVAGPSVFLFPPKPKDTLMISRTPEVTCVVVDVSHEAPEVQFNWYVDGVEVHNAKTKPREEQFNSTFRVVSVLTVVHQDWLNGKEYKCKVSNKGLPAPIEKTISKTKGQPREPQVYTLPPCRDELTKNQVSLWCLVKGFYPSDIAVEWESNGQPENNYKTTPPVLDSDGSFFLYSKLTVDKSRWQQGNVFSCSVMHEALHNHYTQKSLSLSPGK
heavy 2: EVQLVESGGGLVKPGGSLRLSCAASGFSFSNSAMSWVRQAPGKGLEWVSTISSGDSYTYYADSVKGRFTISRDNAKNSLYLQMNSLRAEDTAVYYCARQGYGNALDYWGQGTLVTVSSASTKGPSVFPLAPSSKSTSGGTAALGCLVKDYFPEPVTVSWNSGALTSGVHTFPAVLQSSGLYSLSSVVTVPSSSLGTQTYICNVNHKPSNTKVDKKVEPKSCDKTHTAPAPAPAPAPAPAPAPQVQLVESGGGVVQPGRSLRLSCAASGFTFSTYAMNWVRQAPGKGLEWVGRIRSKYNNYATYYADSVKDRFTISRDDSKNTLYLQMNSLRGEDTAVYYCARHGNFGNSYVSWFAYWGQGTLVTVSSGGGGSGGGGSGGGGSQTVVTQEPSLTVSPGGTVTLTCRSSTGAVTTSNYANWVQQKPGQAPRGLIGGTNKRAPGVPARFSGSLLGGKAALTLSGVQPEDEAEYTCALWYSNLWVFGGGTKVEIKGGGGSDKTHTCPPCPAPPVAGPSVFLFPPKPKDTLMISRTPEVTCVVVDVSHEAPEVQFNWYVDGVEVHNAKTKPREEQFNSTFRVVSVLTVVHQDWLNGKEYKCKVSNKGLPAPIEKTISKTKGQPREPQVCTLPPSRDELTKNQVSLSCAVKGFYPSDIAVEWESNGQPENNYKTTPPVLDSDGSFFLVSKLTVDKSRWQQGNVFSCSVMHEALHNHYTQKSLSLSPGK
notes: CSBODY structure: two 1E9.2 Fab arms; second heavy chain (first heavy entry) and first heavy chain with anti-CD3 scFv (Di6-2) between CH1 and Fc2
B2: Bispecific antibody molecule YCS4 (bispecific antibody, human IgG1, kappa)
light 1: not shown
light 2: not shown
heavy 1: QVQLQESGPGLVKPSETLSLTCTVSGFSLTRYGVSWIRQPPGKGLEWIGVIWGEGNTNYNPSLKSRVTISKDSSKSQVSLKLSSVTAADTAVYYCARVNFGNALDYWGQGTLVTVSSASTKGPSVFPLAPSSKSTSGGTAALGCLVKDYFPEPVTVSWNSGALTSGVHTFPAVLQSSGLYSLSSVVTVPSSSLGTQTYICNVNHKPSNTKVDKKVEPKSCDKTHTCPPCPAPPVAGPSVFLFPPKPKDTLMISRTPEVTCVVVDVSHEAPEVQFNWYVDGVEVHNAKTKPREEQFNSTFRVVSVLTVVHQDWLNGKEYKCKVSNKGLPAPIEKTISKTKGQPREPQVYTLPPCRDELTKNQVSLWCLVKGFYPSDIAVEWESNGQPENNYKTTPPVLDSDGSFFLYSKLTVDKSRWQQGNVFSCSVMHEALHNHYTQKSLSLSPGK
heavy 2: B1 heavy 2 with G291A, G332A, T471Y
notes: CS4 with the first heavy/light chain variable regions replaced by 1E9.2; order of chains: first light, second light, second heavy, first heavy
B3: bispecific antibody Y17 (bispecific antibody, human IgG1, kappa)
light: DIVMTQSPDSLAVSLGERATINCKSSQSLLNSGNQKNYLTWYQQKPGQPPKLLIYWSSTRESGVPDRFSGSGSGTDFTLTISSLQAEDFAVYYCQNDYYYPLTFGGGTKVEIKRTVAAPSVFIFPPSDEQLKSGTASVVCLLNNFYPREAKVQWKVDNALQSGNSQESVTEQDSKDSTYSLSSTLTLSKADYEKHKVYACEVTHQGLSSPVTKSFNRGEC
heavy: B1 heavy 1
chain: QVQLVESGGGVVQPGRSLRLSCAASGFTFSTYAMNWVRQAPGKGLEWVGRIRSKYNNYATYYADSVKDRFTISRDDSKNTLYLQMNSLRGEDTAVYYCARHGNFGNSYVSWFAYWGQGTLVTVSSGGGGSGGGGSGGGGSQTVVTQEPSLTVSPGGTVTLTCRSSTGAVTTSNYANWVQQKPGQAPRGLIGGTNKRAPGVPARFSGSLLGGKAALTLSGVQPEDEAEYTCALWYSNLWVFGGGTKVEIKGRGRGSDKTHTCPPCPAPPVAGPSVFLFPPKPKDTLMISRTPEVTCVVVDVSHEAPEVQFNWYVDGVEVHNAKTKPREEQFNSTFRVVSVLTVVHQDWLNGKEYKCKVSNKGLPAPIEKTISKTKGQPREPQVCTLPPSRDELTKNQVSLSCAVKGFYPSDIAVEWESNGQPENNYKTTPPVLDSDGSFFLVSKLTVDKSRWQQGNVFSCSVMHEALHNHYTQKSLSLSPGK
notes: YBODY structure: anti-CLDN18.2 Fab arm (1E9.2) and second monomer anti-CD3 scFv (Di6-2)-Fc
B4: bispecific antibody SY1 (bispecific antibody, human IgG1, kappa)
light: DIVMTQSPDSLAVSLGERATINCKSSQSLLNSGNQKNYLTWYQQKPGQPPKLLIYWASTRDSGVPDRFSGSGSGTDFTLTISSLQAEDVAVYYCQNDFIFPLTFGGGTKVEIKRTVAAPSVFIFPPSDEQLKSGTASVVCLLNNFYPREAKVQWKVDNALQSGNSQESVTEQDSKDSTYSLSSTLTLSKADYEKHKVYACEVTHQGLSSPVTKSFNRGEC
heavy: B2 heavy 1
chain: EVQLVESGGGLVQPGKSLKLSCEASGFTFSGYGMHWVRQAPGRGLESVAYITSSSINIKYADAVKGRFTVSRDNAKNLLFLQMNILKSEDTAMYYCARFDWDKNYWGQGTMVTVSSGGGGSGGGGSGGGGSDIQMTQSPSSLPASLGDRVTINCQASQDISNYLNWYQQKPGKAPKLLIYYTNKLADGVPSRFSGSGSGRDSSFTISSLESEDIGSYYCQQYYNYPWTFGPGTKLEIKGRGRGSDKTHTCPPCPAPPVAGPSVFLFPPKPKDTLMISRTPEVTCVVVDVSHEAPEVQFNWYVDGVEVHNAKTKPREEQFNSTFRVVSVLTVVHQDWLNGKEYKCKVSNKGLPAPIEKTISKTKGQPREPQVCTLPPSRDELTKNQVSLSCAVKGFYPSDIAVEWESNGQPENNYKTTPPVLDSDGSFFLVSKLTVDKSRWQQGNVFSCSVMHEALHNHYTQKSLSLSPGK
notes: YBODY structure: anti-CLDN18.2 Fab arm (2C6.9) and single chain anti-mouse CD3 scFv (2C11)-Fc
B5: bispecific antibody SCS1 (bispecific antibody, human IgG1, kappa)
light: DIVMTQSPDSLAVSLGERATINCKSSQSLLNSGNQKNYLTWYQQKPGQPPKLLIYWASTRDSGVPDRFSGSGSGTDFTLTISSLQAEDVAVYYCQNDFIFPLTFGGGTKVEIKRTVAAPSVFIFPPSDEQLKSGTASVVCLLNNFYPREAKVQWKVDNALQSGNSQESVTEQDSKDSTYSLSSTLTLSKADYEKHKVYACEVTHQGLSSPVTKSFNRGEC
heavy 1: B2 heavy 1
heavy 2: QVQLQESGPGLVKPSETLSLTCTVSGFSLTRYGVSWIRQPPGKGLEWIGVIWGEGNTNYNPSLKSRVTISKDSSKSQVSLKLSSVTAADTAVYYCARVNFGNALDYWGQGTLVTVSSASTKGPSVFPLAPSSKSTSGGTAALGCLVKDYFPEPVTVSWNSGALTSGVHTFPAVLQSSGLYSLSSVVTVPSSSLGTQTYICNVNHKPSNTKVDKKVEPKSCDKTHTAPAPAPAPAPAPAPAPEVQLVESGGGLVQPGKSLKLSCEASGFTFSGYGMHWVRQAPGRGLESVAYITSSSINIKYADAVKGRFTVSRDNAKNLLFLQMNILKSEDTAMYYCARFDWDKNYWGQGTMVTVSSGGGGSGGGGSGGGGSDIQMTQSPSSLPASLGDRVTINCQASQDISNYLNWYQQKPGKAPKLLIYYTNKLADGVPSRFSGSGSGRDSSFTISSLESEDIGSYYCQQYYNYPWTFGPGTKLEIKGGGGSDKTHTCPPCPAPPVAGPSVFLFPPKPKDTLMISRTPEVTCVVVDVSHEAPEVQFNWYVDGVEVHNAKTKPREEQFNSTFRVVSVLTVVHQDWLNGKEYKCKVSNKGLPAPIEKTISKTKGQPREPQVCTLPPSRDELTKNQVSLSCAVKGFYPSDIAVEWESNGQPENNYKTTPPVLDSDGSFFLVSKLTVDKSRWQQGNVFSCSVMHEALHNHYTQKSLSLSPGK
notes: CSBODY structure: two 2C6.9 Fab arms; second heavy chain (first heavy entry) and first heavy chain with anti-mouse CD3 scFv (2C11) between CH1 and Fc2; also called SCSI

How the values were obtained:
Human CLDN18.2 [1] = molecular target: Human CLDN18.2 (human); test: cell-based or functional assay
Human CLDN18.1 = molecular target: T1, Human CLDN18.1 (human, UniProt P56856 1-261); test: flow cytometry, 293T-hCLDN18.1 cells
T1 construct: also called hCLDN18.1

Human CLDN18.2 [2] = molecular target: T2, Human CLDN18.2 (human); test: flow cytometry, NUGC4-hCLDN18.2 cells
T2 construct: the cell line is named under assay; also called hCLDN18.2; human CLDN18.2 antigen
Protocol: (§1) NUGC4 and NUGC4-hCLDN18.2 cells were cultured, digested with pancreatin and centrifuged to collect cells. The cells were collected and resuspended in buffer (PBS+1% FBS) at 1×10⁴ cells/well in a 96-well plate at 100 μL per well. Then the mixture was centrifuged at 350×g for 5 min, and the supernatant was removed.

human CD3 antigen [3] = molecular target: T3, human CD3 antigen (human, UniProt P07766 23-126); test: SPR (Biacore T200), human CD3 antigen on CM5 chip
T3 construct: also called Human CD3ϵ
Protocol: (§2) After the detection was completed, data fitting was carried out on the result pattern by adopting Biacore T200 Evaluation Software in a 1:1 binding fitting mode to obtain an equilibrium dissociation constant (KD).

Human CLDN18.2 [4] = molecular target: T2, Human CLDN18.2; test: flow cytometry, NUGC4 cells (endogenous CLDN18.2)
human CD3 antigen [5] = molecular target: T3, human CD3 antigen; test: detection method the same as in Examples 2-8 (Biacore)
Human CLDN18.2 [6] = molecular target: T2, Human CLDN18.2; test: flow cytometry, NUGC4-hCLDN18.2 cells; remark: listed apart in the source
Protocol: as §1

Human CLDN18.2 [7] = molecular target: T2, Human CLDN18.2; test: flow cytometry, NUGC4 cells (endogenous CLDN18.2); remark: listed apart in the source
Protocol: as §1

murine CD3 antigen = molecular target: T4, murine CD3 antigen (murine, UniProt P22646 22-108, limits assumed); test: SPR (Biacore T200), murine CD3 antigen on CM5 chip, 1:1 fit
T4 construct: also called Mouse CD3ϵ
T4 sequence (P22646 22-108 limits assumed): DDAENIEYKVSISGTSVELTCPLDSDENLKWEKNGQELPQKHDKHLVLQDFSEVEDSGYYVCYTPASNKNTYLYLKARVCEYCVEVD
Protocol: as §2

| Binder | EC50 value for killing effect on NUGC4-hCLDN18.2 cells (Human CLDN18.2 [1]) [nM] | EC50 value for killing effect on NUGC4 cells (Human CLDN18.2 [1]) [nM] | binding result (Human CLDN18.1) | EC50 (Human CLDN18.2 [2]) [nM] | Kd (human CD3 antigen [3]) [nM] | EC50 (Human CLDN18.2 [4]) [nM] | binding result (human CD3 antigen [5]) | EC50 (Human CLDN18.2 [6]) [nM] | EC50 (Human CLDN18.2 [7]) [nM] | Kd (murine CD3 antigen) [nM] |
| --- | --- | --- | --- | --- | --- | --- | --- | --- | --- | --- |
| B1 | < 0.01 | < 0.01 | no binding | < 50 | < 15 | < 100 | – | – | – | – |
| B2 | – | – | – | – | – | – | binds | – | – | – |
| B3 | < 0.01 | < 0.01 | no binding | < 50 | < 15 | < 100 | – | – | – | – |
| B4 | – | – | – | – | – | – | – | 125 | 304 | 79.3 |
| B5 | – | – | – | – | – | – | – | 25.4 | 29.1 | 94.1 |
